Laboratory results reported in patent US10246503B2, “Method of improving the pharmacokinetic profile of a therapeutic polypeptide and the use thereof” (BEIJING ANXINHUAIDE BIOTECH. CO., LTD, priority 2012, dated 2019).

Key:
[1] = pharmacokinetics in cynomolgus monkeys, sandwich ELISA; type: in vivo; details: subcutaneous, 5 nmol/kg
Method: (§1) The GLP-1 concentrations within the samples were examined by use of the sandwich ELISA method. The rabbit polyclonal antibody against human Fibronectin at the concentration of 3 ug/ml (Ab299, Abcam company) was coated on ELISA plate for 1 hour at room temperature. Then the plate was washed by PBST buffer three times and the wells were blocked by PBS with 10% FBS for 1 hour at room temperature. The plate was washed three times before the serum samples containing GLP-1 fusion proteins were added. The serum samples could be diluted to 20-10000 folds before use. The ELISA plate was incubated with the serum samples at room temperature for 1 hour and then washed by PBST buffer five times. Then mouse monoclonal against human GLP-1 peptide antibody (sc57510, Santa Cruz Biotechnology) at the concentration of 1 ug/ml in PBST buffer was added to the wells. The plate was washed extensively after incubation of 1 hour at room temperature. The secondary antibody, […] HRP conjugated antibody (Beijing ZSGB-Bio company, ZB 5301), was added into the wells and the color was developed using TMB (3,3′,5,5′-tetramethylbenzidine, BD Biosciences, Cat 555214). The plate reader (Bio-Rad microplate reader Model 680) was utilized to obtain the OD450 readings. This method has been calibrated using purified proteins first.
To further investigate the pharmacokinetics profiles for the GLP-1 containing fusion proteins generated using the method of the invention, the fusion protein GLP1(A8G/G22E/R36G)-Fn8-p246-COL18NC1 was administrated into the cynomolgus monkeys by subcutaneous injection. The fusion protein was administered on three cynomolgus monkeys at the dose of 5 nmol/kg. Blood samples were taken at various time points after injections such as 0-min, 2-hour, 4-hour, 6-hour, 8-hour, 24-hour, 48-hour, and daily until the 15th day. The serum samples were centrifuged and kept at −80° C. freezer. The concentrations of the fusion protein within the serum samples were examined by using the sandwich ELISA method described above. The pharmacokinetics profile of the fusion protein GLP1(A8G/G22E/R36G)-Fn8-p246-COL18NC1 in cynomolgus monkeys was shown in FIG. 8. The pharmacokinetics parameters were obtained by using the WinNonlin software (Table 5).

[2] = pharmacokinetics in SD rats, sandwich ELISA (Example 15); type: in vivo, SD (Sprague-Dawley) rats; details: intraperitoneal, 5 nmol/kg
Method: To evaluate the pharmacokinetics profiles for the GLP-1 containing fusion proteins generated using the method of the invention, we purified the recombinant fusion proteins of GLP-1-Fn8-COL18NC1, GLP1(A8G/G22E/R36G)-Fn8-p246-COL18NC1 and GLP1(A8G/G22E/R36G)-Fn8-p285-COL18NC1 in PBS buffer, pH 7.2. These fusion proteins were administered into SD (Sprague-Dawley) rats by intraperitoneal injections at the dose of 5 nmol/kg for animals, respectively. Blood samples were taken at various time points after injections such as 0-min, 30-min, 1-hour, 2-hour, 4-hour, 6-hour, 8-hour, 24-hour, 48-hour, 3-day, 4-day, 5-day, 6-day and 7-day. The serum samples were centrifuged and kept at −80° C. freezer.
as §1
The pharmacokinetics parameters were obtained by using the WinNonlin software (Table 5).

SD rats [3] = assay: Intraperitoneal glucose tolerance test (IPGTT) in SD rats; type: in vivo, SD (Sprague-Dawley) rats
Method: In this figure, GLP1(A8G/G22E/R36G)-Fn8-p246-COL18NC1 is labeled as p246. In FIG. 9a, the rats were injected with saline, GLP1(A8G/G22E/R36G)-Fn8-p246-COL18NC1 at the dose of 10_nmol/kg and 20_nmol/kg, respectively. 8 hours after the administrations of the fusion protein (and control), the IPGTT experiments were conducted. The three curves indicated the glucose levels in the IPGTT for rats that received negative control (saline), GLP1(A8G/G22E/R36G)-Fn8-p246-COL18NC1 at the doses of 10_nmol/kg and 20_nmol/kg, respectively. In FIG. 9b, the rats were injected with saline, GLP1(A8G/G22E/R36G)-Fn8-p246-COL18NC1 at the dose of 20 nmol/kg. 32 hours and 102 hours after the administrations of the fusion protein (and the control), the IPGTT experiments were conducted. The three curves indicated the glucose levels in the IPGTT for rats that 32 hours and 102 hours after administration of negative control (saline), GLP1(A8G/G22E/R36G)-Fn8-p246-COL18NC1 respectively.
To evaluate the efficacy of GLP1(A8G/G22E/R36G)-Fn8-p246-COL18NC1 to reduce the glucose level in animal models, we performed the Intraperitoneal glucose tolerance test (IPGTT) in SD rats. The fusion protein GLP1(A8G/G22E/R36G)-Fn8-p246-COL18NC1 was administered on SD (Sprague-Dawley) rats by intraperitoneal injections at the dose of 10 nmol/kg and 20 nmol/kg for animals, respectively. Glucose was injected into the animals with the dose of 2 g/kg at 8 hours, 32 hours and 100 hours after the injection of the fusion protein GLP1(A8G/G22E/R36G)-Fn8-p246-COL18NC1. Blood samples were taken at various time points after injections such as 0-min, 10-min, 20-min, 30-min, 60-min and 120-min. The glucose levels within the blood samples were measured using a Accu-Chek Performa blood glucose meter (Roche) immediately. In FIG. 9a, the rats were injected with GLP1(A8G/G22E/R36G)-Fn8-p246-COL18NC1 at the dose of 10 nmol/kg and 20 nmol/kg about 8 hours before the IPGTT experiments were conducted. […] In FIG. 9b, about 32 hours and 100 hours after the rats were injected with GLP1(A8G/G22E/R36G)-Fn8-p246-COL18NC1 at the dose of 20 nmol/kg, the IPGTT experiments were conducted.

SD rats [4] = assay: toxicity in SD rats; type: in vivo
Source text: The toxicity of GLP1(A8G/G22E/R36G)-Fn8-p246-COL18NC1 in SD rats was also examined.

B1: GLP1(A8G/G22E/R36G)-Fn8-p246-COL18NC1: GLP-1 mutant, Fn8, pCloud p246, COL18NC1 fusion; SEQ ID NO: 16 (protein)
chain: HGEGTFTSDVSSYLEEQAAKEFIAWLVKGGGSGGGSGGGSGGGSGGGSGSGGAVPPPTDLRFTNIGPDTMRVTWAPPPSIDLTNFLVRYSPVKNEEDVAELSISPSDNAVVLTNLLPGTEYVVSVSSVYEQHESTPLRGRQKTGGGGSGGGSGSGSESGSGGGSTSSGTGSETESPGSGSESGSGPSSAGSGSGSESGSGSGSSGPGSTGGSGSESGSGPGSSGTGGTATGSGSESGSGPGSSGPGSTGSGSGSESGSGSGSSGTGSTGGSGSESGSGPGSPRPGSTGTGSGSESGSGPGSSERGSAGGSGSESGSGTSESSASGSTGGSGSESGSGSESGSGSGSESGSGPESPGSGGSGSESGSGTSGSTGSGSESGSGGGSGGGSGGGASSGVRLWATRQAMLGQVHEVPEGWLIFVAEQEELYVRVQNGFRKVQLEARTPLPRG
[1]; Monkey
  AUCall: 1267.8 µg·h/mL
  CL/F: 0.48 mL/h/kg
  Cmax: 8210 ng/mL
  T½: 67.3 h
  Vss: 0.0516 L/kg
[1]; cynomolgus monkeys
  half life: ~67 h
[2]; Rats
  AUCall: 301.2 µg·h/mL
  CL/F: 2.03 mL/h/kg
  Cmax: 5730 ng/mL
  T½: 30.8 h
  Vss: 0.09023 L/kg
[2]; SD rats
  half life: 30.8 h
SD rats [3]; 10 nmol/kg intraperitoneal, about 8 hours before IPGTT, glucose 2 g/kg
  glucose level in IPGTT: can efficiently reduce the glucose level
SD rats [3]; 20 nmol/kg intraperitoneal, about 8 hours before IPGTT, glucose 2 g/kg
  glucose level in IPGTT: can efficiently reduce the glucose level
SD rats [3]; 20 nmol/kg, 100 hours after the injection
  glucose level in IPGTT: can still reduce the glucose level significantly
SD rats [3]; single dose 20 nmol/kg, IPGTT about 32 hours and 100 hours after injection
  glucose-reducing activity in IPGTT: can maintain its glucose-reducing activity in vivo for an extended period of time
SD rats [4]; repeated doses of 5 nmol/kg every three days for four weeks
  unacceptable adverse effects such as significant weight loss and fever: did not induce unacceptable adverse effects
SD rats [4]; single dose of 30 nmol/kg
  unacceptable adverse effects such as significant weight loss and fever: did not induce unacceptable adverse effects
